Laboratory results taken from US6913892.
Like-named read-outs stand apart in the source and are kept apart here.

What was measured:
rat Y4 receptor (rat) = rat Y4 receptor (rat) (UniProt Q63447); assay: 125I-PYY displacement, COS-7 membranes
[1] = target: human Y2 receptor (human) (UniProt P49146); assay: 125I-PYY displacement, COS-7 membranes
[2] = target: human Y1 receptor (human) (UniProt P25929); assay: 125I-PYY displacement, COS-7 membranes
[3] = target: human Y4 receptor (human) (UniProt P0DQD5); assay: 125I-PYY displacement, COS-7 membranes
[4] = target: human Y4 receptor (human) (UniProt P0DQD5); assay: 125I-PYY displacement, COS-7 membranes; remark: listed apart in the source
[5] = target: human Y4 receptor (human) (UniProt P0DQD5); assay: 125I-PYY displacement, COS-7 membranes (as in Table 3)
[6] = target: human Y4 receptor (human) (UniProt P0DQD5); assay: cell-based or functional assay
[7] = target: Y2-like receptor population expressed by human SK-N-Be(2) neuroblastoma cells; assay: 125I-PYY displacement, SK-N-Be(2) membranes
[8] = target: Y2-like receptor population expressed by human SK-N-Be(2) neuroblastoma cells; assay: ratio of Ki values, 125I-PYY displacement
[9] = target: human Y4 receptor (human) (UniProt P0DQD5); assay: 125I-PYY displacement, COS-7 membranes; remark: listed apart in the source
[10] = target: human Y1 receptor (human) (UniProt P25929); assay: 125I-PYY displacement, COS-7 membranes; remark: listed apart in the source
[11] = target: human Y1 receptor (human) (UniProt P25929); assay: ratio of Ki values, 125I-PYY displacement
[12] = target: human Y4 receptor (human) (UniProt P0DQD5); assay: ratio of Ki values, 125I-PYY displacement

Sequence of human Y1 receptor (human) (P25929 whole entry): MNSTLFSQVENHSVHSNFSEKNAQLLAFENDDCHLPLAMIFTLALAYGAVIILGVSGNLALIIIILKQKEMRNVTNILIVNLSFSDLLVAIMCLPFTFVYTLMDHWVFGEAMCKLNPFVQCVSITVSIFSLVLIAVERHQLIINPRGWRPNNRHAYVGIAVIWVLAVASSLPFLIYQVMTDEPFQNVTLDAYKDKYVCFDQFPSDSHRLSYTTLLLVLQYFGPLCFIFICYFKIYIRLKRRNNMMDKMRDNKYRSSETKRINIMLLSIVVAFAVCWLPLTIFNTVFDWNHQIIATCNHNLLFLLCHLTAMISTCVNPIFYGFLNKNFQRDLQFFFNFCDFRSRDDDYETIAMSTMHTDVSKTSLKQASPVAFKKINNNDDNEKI
Sequence of human Y4 receptor (human) (P0DQD5 whole entry): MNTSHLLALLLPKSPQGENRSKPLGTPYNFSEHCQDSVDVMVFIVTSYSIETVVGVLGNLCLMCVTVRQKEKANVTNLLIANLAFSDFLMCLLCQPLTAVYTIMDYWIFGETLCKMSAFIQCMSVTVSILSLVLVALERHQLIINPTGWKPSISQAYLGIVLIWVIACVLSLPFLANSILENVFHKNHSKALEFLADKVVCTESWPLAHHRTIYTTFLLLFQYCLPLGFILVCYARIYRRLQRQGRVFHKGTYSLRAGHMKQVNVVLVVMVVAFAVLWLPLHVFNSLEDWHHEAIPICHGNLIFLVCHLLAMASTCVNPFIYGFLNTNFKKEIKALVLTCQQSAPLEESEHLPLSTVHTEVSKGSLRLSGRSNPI
Sequence of rat Y4 receptor (rat) (Q63447 whole entry R262P): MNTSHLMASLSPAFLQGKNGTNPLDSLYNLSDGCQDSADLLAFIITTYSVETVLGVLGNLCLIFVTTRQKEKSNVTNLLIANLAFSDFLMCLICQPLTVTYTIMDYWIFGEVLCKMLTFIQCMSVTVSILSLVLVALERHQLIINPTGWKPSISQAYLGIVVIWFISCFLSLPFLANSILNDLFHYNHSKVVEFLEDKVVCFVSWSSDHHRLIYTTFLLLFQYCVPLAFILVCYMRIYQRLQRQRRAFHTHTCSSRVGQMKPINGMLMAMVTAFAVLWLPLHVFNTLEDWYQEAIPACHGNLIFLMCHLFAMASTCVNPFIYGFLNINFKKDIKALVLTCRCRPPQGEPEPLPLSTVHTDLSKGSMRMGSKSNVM
Sequence of human Y2 receptor (human) (P49146 whole entry): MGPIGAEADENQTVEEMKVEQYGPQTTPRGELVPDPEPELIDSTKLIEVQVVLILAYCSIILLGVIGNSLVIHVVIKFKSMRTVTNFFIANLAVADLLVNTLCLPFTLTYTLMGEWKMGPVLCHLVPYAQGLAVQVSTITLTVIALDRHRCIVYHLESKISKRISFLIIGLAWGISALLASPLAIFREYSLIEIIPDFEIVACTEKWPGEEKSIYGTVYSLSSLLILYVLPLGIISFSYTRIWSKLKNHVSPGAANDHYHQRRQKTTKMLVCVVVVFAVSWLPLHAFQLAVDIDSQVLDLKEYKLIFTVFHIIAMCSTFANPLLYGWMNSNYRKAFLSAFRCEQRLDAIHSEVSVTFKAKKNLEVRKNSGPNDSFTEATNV
Sequence of PP, salmon (peptide) (P69092 whole entry): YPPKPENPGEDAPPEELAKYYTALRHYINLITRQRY

Substance	Ki [1]	Ki [2]	Ki [3]	Ki [7]	Ki [9]	Ki [10]	other results
C2-NPY, porcine (peptide)	3.5 nM	73 nM	120 nM	–	–	–	Ki (rat Y4 receptor (rat)): 22 nM
PP31-36 free acid, human (from UniProt P01298 60-65) (peptide)	–	–	–	–	–	–	Ki [4]: > 10000 nM
PP, salmon (peptide)	–	0.2 nM	3.2 nM	–	–	–	Ki [5]: 3.2 nM; EC50, inhibition of forskolin-stimulated cAMP accumulation, LM(tk-) cells [6]: 110 nM; Ki (rat Y4 receptor (rat)): 0.36 nM
human NPY free acid (from UniProt P01303 29-64) (peptide)	–	–	–	280 nM	–	–	–
porcine NPY13-36 (from UniProt P01304 22-45) (peptide)	2.5 nM	70 nM	38 nM	–	39 nM	51 nM	Ki (rat Y4 receptor (rat)): 135 nM
porcine NPY20-36 (from UniProt P01304 29-45) (peptide)	–	63 nM	120 nM	3.1 nM	100 nM	62 nM	–
porcine NPY22-36 (from UniProt P01304 31-45) (peptide)	18 nM	–	–	3.2 nM	140 nM	170 nM	fold loss in affinity against full length porcine NPY [11]: 3500 fold; fold loss in affinity against full length porcine NPY [8]: 11 fold; fold loss in affinity against full length porcine NPY [12]: 120 fold
porcine NPY26-36 (from UniProt P01304 35-45) (peptide)	380 nM	–	–	70 nM	–	> 300 nM	–

Now from value to substance, other results behind:

Ki [1]	Ki [2]	Ki [3]	Ki [7]	Ki [9]	Ki [10]	Substance	other results
–	400 nM	7 nM	–	–	–	PP, avian (peptide)	–
–	98 nM	61 nM	–	–	–	PP, frog (peptide)	Ki (rat Y4 receptor (rat)): 0.19 nM; Ki [4]: 62 nM
–	–	–	0.11 nM	–	–	human peptide YY (from UniProt P10082 29-64)	fold higher affinity than at hp25a [8]: 5 to 10 fold
–	2.4 nM	5.6 nM	0.41 nM	4.4 nM	–	porcine NPY2-36 (from UniProt P01304 11-45) (peptide)	–
3.6 nM	41 nM	54 nM	5 nM	–	45 nM	porcine NPY16-36 (from UniProt P01304 25-45) (peptide)	–
–	70 nM	–	2.1 nM	63 nM	28 nM	porcine NPY18-36 (from UniProt P01304 27-45) (peptide)	Ki [5]: > 290 nM
